For 84 variants, reverse-splicing fitness results are on record in the RNAGym collection of RNA variant scans (doi:10.1093/molbev/msab373).

Sequences and labels used below:
B1: Azoarcus group I ribozyme (parent)
chain: GUGCCUUGCGCCGGGAAACCACGCAAGGGAUGGUGUCAAAUUCGGCGAAACCUAAGCGCCCGCCCGGGCGUAUGGCAACGCCGAGCCAAGCUUCGGCGCCUGCGCCGAUGAAGGUGUAGAGACUAGACGGCACCCACCUAAGGCAAACGCUAUGGUGAAGGCAUAGUCCAGGGAGUGGCGAAAGUCACACAAACCGG

In this data set the parent is B1. Put plainly: reverse-splicing fitness (ratio to wild type); higher = more active; in vitro selection; Mg2+ level not given. A digest of the protocol: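 An in vitro group I ribozyme library with randomized positions was T7-transcribed and gel-purified. In triplicate, 10 pmol RNA in EPPS pH 7.5 was reacted with 50 pmoles of a 30-nt RNA substrate for 1 h at 37 °C across several added MgCl2 levels (1–48 mM), then stopped with EDTA. Products were reverse transcribed from a substrate-complementary primer, PCR-amplified and sequenced (HiSeq 4000). Fitness is a variant's read proportion after selection over that before, normalised to wild type.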
In the case of A111U A120C A145U C150A C169U U176C, the reverse-splicing fitness stood at 0.0187.

Turning to A120C A145U C169G U176C, the reverse-splicing fitness came to 0.0112.

Consider A111U A120C A145C C150A, for which the reverse-splicing fitness is 0.0343.

On to C82U A111C A120C A145G C150U U176C, for which the reverse-splicing fitness amounted to 0.0186.

For C82G C169A U176A, the reverse-splicing fitness is 0.0146.

As to A111U A120U C150U C169G U176G, the reverse-splicing fitness was 0.00213.

As to C82U A111U A120U C169A, the reverse-splicing fitness came out at 0.00267.

Consider C82U A111C A145G C150G C169U U176C, for which the reverse-splicing fitness came out at 0.00994.

As for C82A A120C A145U C150G C169G U176A, the reverse-splicing fitness stood at 0.00819.

Regarding C82G A111C C150G C169U U176C, the reverse-splicing fitness is 0.0127.

Consider C82A A111C A120G C169G U176A, for which the reverse-splicing fitness stood at 0.0165.

Take C82G A111G: the reverse-splicing fitness was 0.411.

Regarding C82G A120C A145G C169A U176G, the reverse-splicing fitness was 0.00477.

C82G A111C A120U A145G C150G C169U: the reverse-splicing fitness worked out at 0.00758.

As for C82G A111G A120U A145G C169A U176C, the reverse-splicing fitness stood at 0.00535.

With C82A A111C A120U A145G C169U U176G, the reverse-splicing fitness is 0.00234.

Consider C82A A111U A120G A145G C150U U176C, for which the reverse-splicing fitness was 0.0178.

As to C82U A111C A120U A145U C169U U176G, the reverse-splicing fitness was 0.00166.

C82U A120G A145C C150G C169A U176C: the reverse-splicing fitness was 0.00565.

For the variant C82G A111G A120C A145C C169G U176C, the reverse-splicing fitness turned out to be 0.0182.

As to C82A A120G A145U C169A U176C, the reverse-splicing fitness is 0.00947.

For the variant C82U A111G A120G A145U C150G C169U U176A, the reverse-splicing fitness turned out to be 0.0129.

In the case of C82U A111G A120G A145U C150G C169U U176C, the reverse-splicing fitness amounted to 0.0117.

Consider C82U A145G C150G C169G U176A, for which the reverse-splicing fitness was determined as 0.01.

C82G A111C A120U A145C C150A C169A U176G: the reverse-splicing fitness was determined as 0.00281.

For the variant C82A A111G A120U A145C C150G C169A U176C, the reverse-splicing fitness is 0.00205.

On to C82G A111G A120G A145C, for which the reverse-splicing fitness was 0.0157.

For A120U A145U C169G U176A, the reverse-splicing fitness amounted to 0.0356.

For the variant C82A A111C A120U A145U C150G, the reverse-splicing fitness was determined as 0.00626.

C82G A111G A120G A145U C150A C169A U176C: the reverse-splicing fitness is 0.0159.

With C82G A111G A145G C150A C169A, the reverse-splicing fitness worked out at 0.011.

Regarding C82A A120G C150A C169A U176A, the reverse-splicing fitness came to 0.0184.

On to C82U A111C A145C C150G, for which the reverse-splicing fitness is 0.024.

As to C82A A111U A120U A145G C150A C169A U176C, the reverse-splicing fitness amounted to 0.00627.

Turning to C82U A111G A120C C169U U176G, the reverse-splicing fitness was 0.00349.

Turning to C82A A111G A120G A145C C150G C169U U176A, the reverse-splicing fitness turned out to be 0.0129.

Consider C82A A111U A120C A145G C169A U176C, for which the reverse-splicing fitness was determined as 0.0332.

Turning to C82U A120C A145U C150U, the reverse-splicing fitness is 0.109.

For the variant A120C A145C C169U U176A, the reverse-splicing fitness was found to be 0.143.

Turning to C82U A145U C150A C169A U176A, the reverse-splicing fitness came to 0.0106.

As for C82G A111G A120G C169A U176C, the reverse-splicing fitness worked out at 0.0232.

A120C C150A C169A: the reverse-splicing fitness is 0.0141.

Take C82A A111U A145G C150U C169U U176A: the reverse-splicing fitness was determined as 0.0147.

Regarding C82U A111C A145U C169A, the reverse-splicing fitness was determined as 0.00715.

Regarding C82A A111G A120C A145C C150U U176G, the reverse-splicing fitness worked out at 0.00644.

A120C A145G C150G C169U U176A: the reverse-splicing fitness is 0.0149.

With C82G A120C A145U U176C, the reverse-splicing fitness came out at 0.0999.

Consider C82G A120C A145U U176A, for which the reverse-splicing fitness was 0.0752.

As to C82U A111G A120G A145G C150G C169A U176G, the reverse-splicing fitness came out at 0.00756.

With C82U A145U C169U U176G, the reverse-splicing fitness worked out at 0.00406.

On to C82G A111G A120U A145C C169G U176G, for which the reverse-splicing fitness came to 0.00165.

C82A A111G A120G C150U C169U: the reverse-splicing fitness was 0.0102.

C82G A120G A145G C150G C169G: the reverse-splicing fitness amounted to 0.0108.

C82A C169G U176C: the reverse-splicing fitness stood at 0.0234.

A111U A120G C150U C169U: the reverse-splicing fitness was found to be 0.0857.

Regarding C82G A111G A120C A145C C169U, the reverse-splicing fitness came to 0.0144.

On to C82G A111G A120C A145U C150A C169G U176C, for which the reverse-splicing fitness is 0.0209.

On to C82A A111U A145C C150G, for which the reverse-splicing fitness was found to be 0.0267.

In the case of A111G A120C A145C C150A C169G U176G, the reverse-splicing fitness was 0.00452.

As to C82A A111U A120G A145C C150A C169A, the reverse-splicing fitness was found to be 0.00789.

As for C82U A120U A145U C150G, the reverse-splicing fitness was found to be 0.0184.

For C82G A111U A120U A145C C169U U176A, the reverse-splicing fitness stood at 0.00287.

C82A A120C A145C C169A: the reverse-splicing fitness is 0.00831.

On to C82A A111G A120U C150G C169A U176G, for which the reverse-splicing fitness stood at 0.0031.

As to C82G A145C C150U C169U, the reverse-splicing fitness was found to be 0.00975.

As for A120G A145G C150G U176C, the reverse-splicing fitness turned out to be 0.0592.

Consider C82U A120U A145U C169A U176G, for which the reverse-splicing fitness amounted to 0.00174.

A111C A120C C150G C169G: the reverse-splicing fitness was found to be 0.00757.

On to C82A A111G A145U C150U C169G U176G, for which the reverse-splicing fitness stood at 0.00627.

For A111C A120C A145U C150A C169A U176A, the reverse-splicing fitness came to 0.0108.

For C82U A120U A145U C150U C169A U176A, the reverse-splicing fitness was determined as 0.00262.

For the variant C82U A111U A120C A145G C150G C169U U176C, the reverse-splicing fitness worked out at 0.0128.

For the variant C82G A120C C150A C169A U176C, the reverse-splicing fitness worked out at 0.0213.

Consider A120G A145U C150U C169A U176C, for which the reverse-splicing fitness came to 0.14.

As to A111G A120U A145G C150G U176C, the reverse-splicing fitness was determined as 0.0188.

C82U A111G A120C U176G: the reverse-splicing fitness turned out to be 0.00542.

As for C82U A111U A120G A145C C150U C169A U176C, the reverse-splicing fitness was 0.00544.

As for C82G A111U A145C C150G U176C, the reverse-splicing fitness was found to be 0.0238.

For the variant C82A A111G A120C A145C, the reverse-splicing fitness was 0.0362.

A111U A120U A145U C169A: the reverse-splicing fitness is 0.00401.

Consider A111G A120C A145G C150U C169G U176C, for which the reverse-splicing fitness worked out at 0.0192.

C82G A111G A120C A145U C169G U176C: the reverse-splicing fitness was determined as 0.0163.

Regarding C82U A111U A120G A145C C169G U176G, the reverse-splicing fitness is 0.004.

With C82A A111C A120G A145U C150A, the reverse-splicing fitness turned out to be 0.00771.
